Test results from patent US11472855, “RNA-binding protein” (Panitch Schwarze Belisario & Nadel LLP).

Key:
[1] = biological target: T1, hPUF_MT(R7_IRG) (UniProt Q14671 SEQ:1-342); experiment: EMSA; comparable to WT; settings: label: Alexa680 at 5' and 3'
T1 chain: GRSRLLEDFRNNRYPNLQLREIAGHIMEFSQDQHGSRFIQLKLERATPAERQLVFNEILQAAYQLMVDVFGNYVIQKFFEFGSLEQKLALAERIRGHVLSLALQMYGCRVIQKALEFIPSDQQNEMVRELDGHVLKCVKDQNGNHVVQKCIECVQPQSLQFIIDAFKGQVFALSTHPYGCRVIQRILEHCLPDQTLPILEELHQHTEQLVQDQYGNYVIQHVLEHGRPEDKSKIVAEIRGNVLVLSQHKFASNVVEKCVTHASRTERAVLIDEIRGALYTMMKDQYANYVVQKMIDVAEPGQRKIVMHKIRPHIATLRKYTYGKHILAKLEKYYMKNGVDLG

[2] = biological target: T2, hPUF_MT(R2_N12S,Q16R, R3→R5, R4→R6) (R2 repeat N12S,Q16R); experiment: EMSA; binds C exclusively; settings: label: Alexa680 at 5' and 3'
T2 chain: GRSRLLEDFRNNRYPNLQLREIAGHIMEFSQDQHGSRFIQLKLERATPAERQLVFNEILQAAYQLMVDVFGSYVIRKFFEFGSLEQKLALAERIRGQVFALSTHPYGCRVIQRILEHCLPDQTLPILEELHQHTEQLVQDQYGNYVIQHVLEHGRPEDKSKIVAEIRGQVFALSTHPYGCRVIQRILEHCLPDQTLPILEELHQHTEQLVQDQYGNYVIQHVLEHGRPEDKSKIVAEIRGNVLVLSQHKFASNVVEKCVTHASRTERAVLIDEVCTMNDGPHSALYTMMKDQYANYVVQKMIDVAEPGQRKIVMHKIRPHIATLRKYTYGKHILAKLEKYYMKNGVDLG

[3] = biological target: T3, hPUF_MT(R2_N12S,Q16E, R3→R5, R4→R6) (R2 repeat N12S,Q16E); experiment: EMSA; binds G exclusively; settings: label: Alexa680 at 5' and 3'
T3 chain: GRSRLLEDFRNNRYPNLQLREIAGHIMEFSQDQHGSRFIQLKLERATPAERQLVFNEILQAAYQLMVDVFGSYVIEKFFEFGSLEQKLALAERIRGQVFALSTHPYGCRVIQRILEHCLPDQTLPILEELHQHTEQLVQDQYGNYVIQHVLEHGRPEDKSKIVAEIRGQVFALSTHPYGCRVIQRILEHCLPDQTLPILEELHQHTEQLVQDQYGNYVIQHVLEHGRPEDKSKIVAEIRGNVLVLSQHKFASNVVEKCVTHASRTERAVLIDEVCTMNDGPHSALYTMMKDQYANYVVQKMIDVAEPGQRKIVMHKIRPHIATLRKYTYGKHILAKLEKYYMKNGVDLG

[4] = biological target: T4, hPUF_MT(R8_N12S,Q16E, R3→R5, R4→R6) (R8 repeat N12S,Q16E); experiment: EMSA; binds G exclusively; settings: label: Alexa680 at 5' and 3'
T4 chain: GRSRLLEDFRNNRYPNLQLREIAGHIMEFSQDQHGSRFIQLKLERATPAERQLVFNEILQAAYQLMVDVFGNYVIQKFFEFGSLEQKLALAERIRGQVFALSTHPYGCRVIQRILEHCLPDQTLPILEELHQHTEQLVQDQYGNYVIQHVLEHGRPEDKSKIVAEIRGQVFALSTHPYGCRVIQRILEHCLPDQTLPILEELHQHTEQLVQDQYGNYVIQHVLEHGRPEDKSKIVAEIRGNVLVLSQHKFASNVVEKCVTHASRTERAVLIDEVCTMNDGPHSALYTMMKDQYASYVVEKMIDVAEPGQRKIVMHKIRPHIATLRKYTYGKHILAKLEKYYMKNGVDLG

[5] = biological target: T5, hPUF_MT(R7_S12N,E16Q, R3→R5, R4→R6) (R7 repeat S12N,E16Q); experiment: EMSA; binds U exclusively; settings: label: Alexa680 at 5' and 3'
T5 chain: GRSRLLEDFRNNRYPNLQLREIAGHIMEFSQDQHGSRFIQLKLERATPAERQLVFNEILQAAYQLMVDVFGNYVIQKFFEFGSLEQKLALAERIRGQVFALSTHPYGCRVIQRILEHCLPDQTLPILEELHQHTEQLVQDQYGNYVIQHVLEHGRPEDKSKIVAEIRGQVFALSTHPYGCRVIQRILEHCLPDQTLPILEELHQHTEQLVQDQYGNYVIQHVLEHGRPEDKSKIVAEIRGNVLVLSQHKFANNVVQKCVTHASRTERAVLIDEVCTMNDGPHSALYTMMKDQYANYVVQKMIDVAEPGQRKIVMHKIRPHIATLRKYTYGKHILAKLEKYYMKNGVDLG

[6] = biological target: T6, hPUF_MT(R3→R5, R4→R6); experiment: EMSA; binds U (R2 position) >> C; settings: label: Alexa680 at 5' and 3'
T6 chain: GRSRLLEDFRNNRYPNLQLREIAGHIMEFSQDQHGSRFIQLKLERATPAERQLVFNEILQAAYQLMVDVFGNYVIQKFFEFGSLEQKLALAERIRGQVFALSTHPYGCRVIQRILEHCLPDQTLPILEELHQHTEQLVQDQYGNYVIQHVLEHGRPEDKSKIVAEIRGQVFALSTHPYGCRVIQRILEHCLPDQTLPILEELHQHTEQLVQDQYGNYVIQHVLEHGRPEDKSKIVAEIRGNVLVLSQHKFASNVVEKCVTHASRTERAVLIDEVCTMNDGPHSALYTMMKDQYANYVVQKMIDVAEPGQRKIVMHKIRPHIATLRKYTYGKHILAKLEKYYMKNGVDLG
Experimental: (§1) Each purified protein was diluted to a desired concentration with Binding Buffer, mixed with a binding buffer and Ribonuclease Inhibitor, Cloned (Invitrogen), and then, mixed with the RNA probe at a final concentration of 0.5 nM. […] A binding reaction was performed at 4° C. for 30 min. Subsequently, the solution was gently mixed by pipetting. A binding reaction was performed again at 4° C. for […].
(§2) The solution obtained after the binding reaction was applied to 6% a non-denaturing polyacrylamide gel, followed by electrophoresis at 4° C. and 200 V. When the electrophoresis marker (2 μL of 6×Dye+10 μL of 1×binding buffer) moved by 0.5 cm, the voltage was changed to 100 V, and electrophoresis was continuously performed until the electrophoresis marker moved by 3 cm. Finally, RNA was detected with Odyssey.

[7] = biological target: human PUM1 PUF domain wild type (hPUF WT) (UniProt Q14671 SEQ:1-349); experiment: EMSA; reference; 4 C, 100 mM NaCl, 1 mM EDTA, pH 7.5; settings: label: Alexa680 at 5' and 3'
Experimental: as §1, §2

[8] = biological target: hPUF_MT(905A) (UniProt Q14671 SEQ:1-349, F905A); experiment: EMSA; not significantly affected; settings: tags: MBP; label: Alexa680 at 5' and 3'
Experimental: An RNA probe (OTS-1511) containing a target sequence fluorescence-labeled with Alexa680 at both ends thereof was synthesized.
as §1

CCAGAAUUGUAUAUAUUCG (ssRNA) [OTS-1511]: binds [1]; no binding [2]; no binding [3]. CCAGAAUUGUAUAUAUUCG (ssRNA) [OTS-1511]: no binding [4]; no binding [5]; binds [6]. CCAGAAUUGUAUAUAUUCG (ssRNA) [OTS-1511]: binds [7]; binds [8].
